{"source": "patent US20240342244A1", "about": "“Isthmin Protein Therapeutics for the Treatment of Non-Alcoholic Fatty Liver Disease” (The Board of Trustees of the Leland Stanford Junior …, priority 2021, published 2024)", "key": {"primary mouse adipocytes": {"test_system": "primary mouse adipocytes", "assay": "2-deoxy-3H-glucose uptake in primary mouse adipocytes", "format": "cell-based", "protocol": "Mouse and human pre-adipocytes culture and differentiation. Inguinal fat pads from 4-8 week old C57BL/6J male and female mice were dissected and mechanically digested for 10 min using spring scissors. Digested tissues were incubated in WAT isolation buffer (10 ml PBS, 2.4 U/ml dispase II (#04942078001, Roche), 10 mg/ml collagenase D (#11088858001, Roche) at 37° C. for 45 min. 20 mL growth media was added and the tissue suspension was filtered through a 100-μm cell strainer and centrifuged at 600×g for 5 min. The cell pellets were resuspended in 20 mL growth media, filtered through a 40-μm cell strainer, centrifuged at 600×g for 5 min, resuspended in 10 mL growth media, and plated in 10-cm collagen-coated dishes. The cells were cultured in growth media (DMEM/F-12 Glutamax, Thermo Fisher Scientific #10565018) supplemented with 10% fetal bovine serum. Two days post-confluency, differentiation was induced with growth media containing 1 μM rosiglitazone, 0.5 mM isobutylmethylxanthine, 1 μM dexamethasone, 5 μg/mL insulin. After two days, cells were re-fed with growth media containing 1 μM rosiglitazone and 5 μg/mL insulin. Cells were fully differentiated after 6-8 days. For ISM1 knockdown or overexpression in primary adipocytes using adenovirus, 500 μL crude virus was mixed with 500 μL fresh growth media containing 1 μM rosiglitazone and 5 μg/mL insulin was added to each well at day 2 of differentiation. At day 4, virus-containing media was removed and 500 μL fresh growth media without stimulators was added to each well. SGBS cells were differentiated as described previously (Fischer-Posovszky et al., 2008; Wabitsch et al., 2001). Briefly, cells were cultured in growth media DMEM/F-12 Glutamax, supplemented with 10% fetal bovine serum, 33 uM biotin, and 17 uM pantothenate. Two days post confluency, differentiation was induced with serum-free DMEM/F12 media containing 33 uM biotin, 17 uM pantothenate, 0.01 mg/ml transferrin, 20 nM insulin, 100 nM cortisol, 0.2 nM triiodothyronine, 25 nM dexamethasone, 0.25 mM isobutyl methylxanthine, and 2 μM rosiglitazone. After four days, cells were re-fed with growth media containing 0.01 mg/ml transferrin 20 nM insulin, 100 nM cortisol, 0.2 nM triiodothyronine. Cells were fully differentiated after day 8-10.\nGlucose uptake. Glucose uptake was performed as previously described (You et al., 2017). Briefly, 2-Deoxy-d-[2,6-3H]-glucose was purchased from PerkinElmer NEN radiochemicals. Fully differentiated adipocytes were washed with KRH buffer and starved in 0.5% BSA in KRH buffer for 4 h. Indicated concentrations of insulin or ISM1 were added at indicated time points. Cells were treated with a mixture of 500 μM 2-deoxy-D-glucose and 1.71 μCimL^−1 2-Deoxy-D-[1,2-3H (N)]-glucose for another 10 min followed by three washes using ice cold KRH buffer containing 200 mM glucose. The passive glucose uptake in the presence of 50 uM CytoB was less than 12% of the total glucose uptake. Cells were solubilized in 1% SDS and radioactivity was measured by liquid scintillation counting."}, "[1]": {"test_system": "human primary skeletal muscle cells", "assay": "2-deoxy-3H-glucose uptake in human primary skeletal muscle cells", "format": "cell-based", "conditions": "for induction of glucose uptake compared with control cells: 1 h"}, "pAKT^S473 [2]": {"test_system": "pAKT^S473", "assay": "pAKT S473 western blot in primary mouse adipocytes", "format": "cell-based", "protocol": "Mouse and human pre-adipocytes culture and differentiation. Inguinal fat pads from 4-8 week old C57BL/6J male and female mice were dissected and mechanically digested for 10 min using spring scissors. Digested tissues were incubated in WAT isolation buffer (10 ml PBS, 2.4 U/ml dispase II (#04942078001, Roche), 10 mg/ml collagenase D (#11088858001, Roche) at 37° C. for 45 min. 20 mL growth media was added and the tissue suspension was filtered through a 100-μm cell strainer and centrifuged at 600×g for 5 min. The cell pellets were resuspended in 20 mL growth media, filtered through a 40-μm cell strainer, centrifuged at 600×g for 5 min, resuspended in 10 mL growth media, and plated in 10-cm collagen-coated dishes. The cells were cultured in growth media (DMEM/F-12 Glutamax, Thermo Fisher Scientific #10565018) supplemented with 10% fetal bovine serum. Two days post-confluency, differentiation was induced with growth media containing 1 μM rosiglitazone, 0.5 mM isobutylmethylxanthine, 1 μM dexamethasone, 5 μg/mL insulin. After two days, cells were re-fed with growth media containing 1 μM rosiglitazone and 5 μg/mL insulin. […]\nWestern blots and molecular analyses. […] For Western blotting of plasma samples, 1 μl of plasma was prepared in 2× sample buffer (Invitrogen) with reducing agent, boiled, and analyzed using Western blot against indicated antibody. […]"}, "pAKT^S473 [3]": {"test_system": "pAKT^S473", "assay": "pAKT S473 western blot in human SGBS adipocytes and human primary skeletal muscle cells", "format": "cell-based", "protocol": "(§1) Western blots and molecular analyses. For western blotting, homogenized tissues or whole-cell lysates, samples were lysed in RIPA buffer containing protease inhibitor cocktail (Roche) and phosphatase inhibitor cocktail (Roche). Cell lysates were centrifuged at 14,000×g for 15 min and supernatants were prepared in 4×LDS Sample Buffer (Invitrogen) and separated by SDS-PAGE and transferred to Immobilon 0.45 μm membranes (Millipore). For Western blotting of plasma samples, 1 μl of plasma was prepared in 2× sample buffer (Invitrogen) with reducing agent, boiled, and analyzed using Western blot against indicated antibody. Protein kinase array (R&D systems ARY003B) was performed according to the manufacturers' description. All antibodies used in this paper are described in STAR methods."}, "[4]": {"test_system": "pAKT^T308, S6^S235/S236, PRAS40^Thr246, ERK1/2, PKA, PDK1, GSK3β", "assay": "Time-course western blot of intracellular signaling pathways in 3T3-F442A cells", "format": "cell-based", "protocol": "as §1"}, "[5]": {"test_system": "IGF-I-Receptor β Tyr1135/1136 or Insulin receptor Tyr1150/1151", "assay": "Western blot of phosphorylated insulin and IGF receptors in 3T3-F442A cells", "format": "cell-based", "conditions": "100 nM; 2 minutes", "protocol": "as §1"}, "pTyr": {"test_system": "pTyr", "assay": "Western blot of pTyr levels", "format": "cell-based", "conditions": "100 nM; 2 minutes", "protocol": "as §1"}, "SREBP1c, FAS, ACC": {"test_system": "SREBP1c, FAS, ACC", "assay": "Lipogenic protein and gene expression in AML12 hepatocytes", "format": "cell-based, mouse", "protocol": "Gene expression analysis. Total RNA from cultured cells or tissues was isolated using TRIzol (Thermo Fischer Scientific) and Rneasy mini kits (QIAGEN). RNA was reverse transcribed using the ABI high capacity cDNA synthesis kit. For qRT-PCR analysis, cDNA, primers and SYBR-green fluorescent dye (ABI) were used. Relative mRNA expression was determined by normalization with Cyclophilin levels using the ΔΔCt method.\nas §1"}, "[6]": {"assay": "Pharmacokinetic measurement of ISM1 blood levels (anti-his ELISA, western blot)", "format": "in vivo, mouse", "conditions": "mice", "protocol": "Pharmacokinetic measurements of ISM1 blood levels following ISM1 administration. An anti-his tag ELISA was performed to measure ISM1-his concentrations in blood. Recombinant ISM1 protein was administered at 10 mg/kg I.V. in a total volume of 100 ul. Blood was collected and centrifuged at 6000×g for 10 minutes at room temperature to collect serum. Blood levels were measured using the HisProbe-HRP Conjugate according to the manufacturer's instructions (Thermo #15165). Briefly, samples were prepared by diluting serum in coating buffer at 1:100 ratio and added to wells for overnight incubation at 4° C. Nonspecific binding was blocked by adding blocking buffer and incubating for 30 min at 37° C. The plate was washed three times with wash buffer. HisProbe-HRP (Thermo, #15165) working solution was added to each well. After 15 min incubation at room temperature, the plate was washed four times with wash buffer, followed by adding substrate (Thermo, #34022). After 10 min, 1N sulfuric acid was added to stop the reaction. Absorbance was measured at 450 nm."}}, "data": [{"molecule": "ISM1: recombinant mouse ISM1 protein with a C-terminal myc-his tag generated in mammalian HEK 293 Expi cells (protein, UniProt A2ATD1 30-454, looked up, C-terminal myc-His tag, recombinant mouse ISM1 protein with a C-terminal myc-his tag generated in mammalian HEK 293 Expi cells) Isthmin-1: SDRQDAAAGNNNLNLESDSTSETSFPLSKEAPEEHQVVHQPFPRQRFPPETGHPSLQRDGPRSFLLDLPNFPDLSKADINGQNPNIQVTIEVVDGPDSEAEKDQHPENKPSWSLPAPDWRAWWQRSLSLARTNSGDQDDKYDSTSDDSNFLSVPRGWDRPAPGHRTFETKEQPEYDSTDGEGDWSLWSVCSVTCGNGNQKRTRSCGYACIATESRTCDRPNCPGIEDTFRTAATEVSLLAGSEEFNATKLFEVDMDSCERWMSCKSEFLKKYMHKVINDLPSCPCSYPTEVAYSTADIFDRIKRKDFRWKDASGPKEKLEIYKPTARYCIRSMLSLESTTLAAQHCCYGDNMQLITRGKGAGTPNLISTEFSAELHYKVDVLPWIICKGDWSRYNEARPPNNGQKCTESPSDEDYIKQFQEAREY", "values": [{"measurement": "glucose uptake when added to insulin", "setting": "primary mouse adipocytes; 100 nM ISM1 in cells treated with 50 nM insulin, 1 h", "value": "further increased insulin-induced uptake"}, {"measurement": "increase in glucose uptake", "setting": "primary mouse adipocytes; 100 nM, absence of insulin, across multiple experiments", "value": "around 1.5 fold"}, {"measurement": "desensitization of glucose uptake on prolonged treatment", "setting": "primary mouse adipocytes; 24 h vs 4 h protein treatment, 100 nM", "value": "does not lead to desensitization"}, {"measurement": "effect on glucose uptake relative to that of insulin", "setting": "primary mouse adipocytes; primary mouse adipocytes", "value": "< 50", "unit": "%"}, {"measurement": "induction of glucose uptake compared with control cells", "setting": "[1]; 50 nM", "value": 5, "unit": "fold"}, {"measurement": "induction of glucose uptake compared with control cells", "setting": "[1]; 200 nM", "value": 7, "unit": "fold"}, {"measurement": "effect on glucose uptake relative to that of insulin", "setting": "[1]; human skeletal muscle cells", "value": 70, "unit": "%"}, {"measurement": "pAKT^S473 induction", "setting": "pAKT^S473 [2]; differentiated primary mouse brown adipocytes", "value": "induced pAKT^S473"}, {"measurement": "pAKT^S473 induction", "setting": "pAKT^S473 [2]; white adipocytes", "value": "induced pAKT^S473"}, {"measurement": "pAKT^S473 induction", "setting": "pAKT^S473 [3]; human SGBS adipocytes", "value": "induced pAKT^S473"}, {"measurement": "pAKT^S473 induction", "setting": "pAKT^S473 [3]; human primary skeletal muscle cells (HSMC), 100 nM, 5 min", "value": "induced pAKT^S473"}, {"measurement": "activation of S6^S235/S236 and PRAS40^Thr246", "setting": "[4]; 100 nM, time course", "value": "time-dependent activation"}, {"measurement": "pAKT^T308 phosphorylation", "setting": "[4]; 100 nM, time course", "value": "phosphorylation at pAKT^T308 at all time points"}, {"measurement": "ERK1/2 phosphorylation", "setting": "[4]; 100 nM, vs 20 ng/ml PDGF-ββ", "value": "does not evoke as robust ERK1/2 phosphorylation as the known mitogen PDGF-ββ"}, {"measurement": "ERK1/2 phosphorylation", "setting": "[4]; 200 nM ISM1 vs 100 nM insulin", "value": "prolonged and more potent phosphorylation of ERK1/2 than insulin"}, {"measurement": "activity on other pathways such as PKA, PDK1 or GSK3P", "setting": "[4]; even at 200 nM doses", "value": "does not display any activity or displays only weak activity"}, {"measurement": "IGF-R/IR phosphorylation", "setting": "[5]", "value": "no phosphorylation"}, {"measurement": "tyrosine phosphorylation of proteins", "setting": "pTyr", "value": "induces phosphorylation of tyrosine residues on proteins >100 kDa in size"}, {"measurement": "SREBP1c cleavage, FAS and ACC protein expression", "setting": "SREBP1c, FAS, ACC; 50 nM insulin, with or without ISM1, 24 h", "value": "counteracts the insulin-induced increase in SREBP1c cleavage to the mature form"}, {"measurement": "ChREBPβ and PGC1β gene expression", "setting": "SREBP1c, FAS, ACC; AML12 hepatocytes", "value": "reduced"}, {"measurement": "fas, acc and scd1 gene expression", "setting": "SREBP1c, FAS, ACC; in the presence of insulin, 6 h", "value": "significantly reduced"}, {"measurement": "half-life in the blood", "setting": "[6]; 10 mg/kg I.V., serum, anti-his ELISA", "value": "approximately 70 minutes"}, {"measurement": "protein integrity in plasma (western blot)", "setting": "[6]; after I.V. administration", "value": "no observed protein degradation or cleavage"}]}]}
